Patent US20220195446

Columns and labels:
[1] = test system: ZnFng-WUS2 ATF (synthetic construct); assay: cell_activity; conditions: endogenous WUS2 mRNA by RT-PCR relative to Act1 in corn protoplasts; range 15-60%; mock nearly zero; binding inferred from activation
[2] = test system: ZnFng-WUS1 ATF (synthetic construct); assay: cell_activity; conditions: endogenous WUS2 mRNA by RT-PCR relative to Act1 in corn protoplasts; range 8-12%; mock nearly zero; binding inferred from activation
Chain of ZnFng-WUS1 ATF (synthetic construct) (chain, as listed by the source): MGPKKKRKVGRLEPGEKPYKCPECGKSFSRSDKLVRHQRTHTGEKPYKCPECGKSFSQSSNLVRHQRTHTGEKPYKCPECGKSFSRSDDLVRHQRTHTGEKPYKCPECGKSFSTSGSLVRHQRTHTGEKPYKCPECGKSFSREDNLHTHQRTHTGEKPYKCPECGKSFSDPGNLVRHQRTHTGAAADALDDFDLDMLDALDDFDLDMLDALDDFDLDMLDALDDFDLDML

Chain of ZnFng-WUS2 ATF (synthetic construct) (chain, as listed by the source): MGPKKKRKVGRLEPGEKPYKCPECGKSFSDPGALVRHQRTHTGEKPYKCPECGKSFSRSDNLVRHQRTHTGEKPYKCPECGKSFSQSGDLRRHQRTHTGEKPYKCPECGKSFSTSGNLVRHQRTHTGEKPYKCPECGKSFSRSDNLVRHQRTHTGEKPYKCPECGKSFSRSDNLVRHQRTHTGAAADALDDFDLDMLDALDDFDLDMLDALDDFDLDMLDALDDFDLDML

Row | Sequence | activity [1] | activity [2]
1 | GAGGAGGATGCAGAGGTC (double strand) | 50 % of actin | –
2 | GACTAGGTTGCGGAAGGG (double strand) [ZnFng-WUS1 binding site in maize WUS2 promoter] | – | 10 % of actin
